From patent publication US20240018237A1 (SICHUAN KELUN BIOTECH BIOPHARMACEUTICAL, published 2024)
Each block holds one binder with its values, some of them ahead of it.

Columns and labels:
[1] = biological target: T1, human ROR1 (full-length, on the cell surface) (human, UniProt Q01973 30-937); assay: flow cytometry on HT29 cells, MFI against antibody concentration
T1 construct: whole, on cells; the tumour cell lines carry their own ROR1; also called Ba/F3-ROR1 cells; Jeko-1
Source text: (§1) The affinity of the candidate antibodies to ROR1 on the surface of human cells was detected by flow cytometry. In addition to the Ba/F3-ROR1 overexpression cells, human mantle cell lymphoma cell line Jeko-1 (ATCC, Cat. No.: CRL-3006), human colon cancer cell line HT-29 (ATCC, Cat. No.: HTB-38), human lung cancer cell line A549 (ATCC, Cat. No.: CCL-185) were also used for the binding assay. The anti-human ROR1 antibody UC961 (for sequence, see WO2018237335A1) with mouse or human IgG1 Fc was used as a positive control, and the anti-2,4,6-trinitrophenol antibody (ATCC) with the corresponding mouse or human IgG1 Fc was used as a negative control. Mouse IgG isotype control (Thermo Fisher, Cat. No.: 31903) was also used as a negative control.

[2] = biological target: T1, human ROR1 (full-length, on the cell …); assay: cell-based or functional assay
[3] = biological target: T2, human ROR2 extracellular domain (ECD) protein (human, UniProt Q01974 34-403); assay: ELISA on coated human ROR2 ECD protein (1 ug/mL), OD at 450 nm
T2 construct: extracellular domain; Bought protein; also called human ROR2 ECD protein; Sino Biologicals 16133-H08H
Protocol: It was confirmed by ELISA using extracellular domain (ECD) protein of human ROR2 that the binding specificity of the candidate antibodies to human ROR1 was higher than that of human ROR2. The specific method was as follows: 1 μg/mL human ROR2 extracellular domain (ECD) protein (Sino Biologicals, Cat. No.: 16133-H08H) was added in a 96-well ELISA plate (Thermo Fisher, Cat. No.: 5129) at 100 μL/well, for coating overnight at 4° C. 200 μL of washing buffer (1×TBS containing 0.05% Tween-20) was used to wash 3 times, different concentrations of eight purified mouse-anti-human ROR1 candidate antibodies and UC961 were added at 100 μL, incubated at 37° C. for 1 hour, and mouse-anti-human ROR2 antibody (R&D systems, Cat. No.: MAB2064) was used as a positive control. Washing was performed 3 times with 200 μL of washing buffer, 100 μL of anti-human IgG (Rockland Inc, Cat. No. 609-1304) or anti-mouse IgG secondary antibody (Rockland Inc, Cat. No. 610-1304) diluted at a ratio of 1:10000 were added to each well, incubated at 37° C. for 1 hour. Washing was performed 3 times with 200 μL of washing buffer, 100 μL of TMB (Thermo Fisher, Cat. No.: TMBW-1000-01) was added for color development in the dark for 10 minutes, then 100 μL of stop solution (Thermo Fisher, Cat. No.: 13361-100-10) was added to stop the color development, and reading was carried out by microplate reader at 450 nm.

[4] = biological target: T1, human ROR1 (full-length, on the cell …); assay: flow cytometry on A549 cells, MFI against antibody concentration
Source text: as §1

[5] = biological target: T1, human ROR1 (full-length, on the cell …); assay: flow cytometry on Jeko-1 cells, MFI against antibody concentration
Source text: as §1

[6] = biological target: human ROR1 (full-length, on the cell surface) (human) (UniProt Q01973); assay: flow cytometry, HT-29 cells (Table 5-3)
[7] = biological target: human ROR1 (full-length, on the cell surface) (human) (UniProt Q01973); assay: cell-based or functional assay
[8] = biological target: human ROR1 (full-length, on the cell surface) (human) (UniProt Q01973); assay: flow cytometry, A549 cells (Table 5-1A)
[9] = biological target: human ROR1 (full-length, on the cell surface) (human) (UniProt Q01973); assay: flow cytometry, Jeko-1 cells (Table 5-2)
[10] = biological target: human ROR1 (full-length, on the cell surface) (human) (UniProt Q01973); assay: flow cytometry, Jeko-1 cells (Table 5-3)
[11] = biological target: human ROR1 (full-length, on the cell surface) (human) (UniProt Q01973); assay: flow cytometry on Ba/F3-ROR1 cells, MFI against antibody concentration
[12] = biological target: human ROR1 (full-length, on the cell surface) (human) (UniProt Q01973); assay: flow cytometry, A549 cells (Table 5-2)
[13] = biological target: human ROR1 (full-length, on the cell surface) (human) (UniProt Q01973); assay: flow cytometry, HT-29 cells; average of two measurements
[14] = biological target: human ROR1 (full-length, on the cell surface) (human) (UniProt Q01973); assay: flow cytometry on Ba/F3-ROR1 cells, MFI against antibody concentration; remark: listed apart in the source
[15] = biological target: human ROR1 (full-length, on the cell surface) (human) (UniProt Q01973); assay: flow cytometry, Jeko-1 cells (Table 5-1B)
[16] = biological target: human ROR1 (full-length, on the cell surface) (human) (UniProt Q01973); assay: flow cytometry, HT-29 cells (Table 5-1B)
[17] = biological target: human ROR1 (full-length, on the cell surface) (human) (UniProt Q01973); assay: flow cytometry, Jeko-1 cells (Table 5-1A)
[18] = biological target: human ROR1 (full-length, on the cell surface) (human) (UniProt Q01973); assay: flow cytometry, Jeko-1 cells; average of two measurements
[19] = biological target: human ROR1 ECD protein (human) (UniProt Q01973); assay: BLI (Octet), antibody on AHC sensor, ROR1 ECD in solution; average of two measurements
[20] = biological target: human ROR1 (full-length, on the cell surface) (human) (UniProt Q01973); assay: flow cytometry, A549 cells (Table 5-1B)
[21] = biological target: human ROR1 ECD protein (human) (UniProt Q01973); assay: BLI (Octet), antibody on AHC sensor, ROR1 ECD in solution; average of three determinations
[22] = biological target: human ROR1 (full-length, on the cell surface) (human) (UniProt Q01973); assay: flow cytometry, Ba/F3-ROR1 cells (Table 5-2)
[23] = biological target: human ROR1 (full-length, on the cell surface) (human) (UniProt Q01973); assay: flow cytometry on A549 cells, MFI against antibody concentration
[24] = biological target: human ROR1 (full-length, on the cell surface) (human) (UniProt Q01973); assay: flow cytometry, HT-29 cells (Table 5-2)
[25] = biological target: human ROR1 (full-length, on the cell surface) (human) (UniProt Q01973); assay: flow cytometry, A549 cells (Table 5-3)
[26] = biological target: human ROR1 (full-length, on the cell surface) (human) (UniProt Q01973); assay: flow cytometry, HT-29 cells (Table 5-1A)
[27] = biological target: human ROR1 (full-length, on the cell surface) (human) (UniProt Q01973); assay: flow cytometry, Ba/F3-ROR1 cells (Table 5-1B)
[28] = biological target: human ROR1 (full-length, on the cell surface) (human) (UniProt Q01973); assay: flow cytometry, Ba/F3-ROR1 cells; average of two measurements
[29] = biological target: human ROR1 (full-length, on the cell surface) (human) (UniProt Q01973); assay: flow cytometry, A549 cells; average of two measurements
[30] = biological target: human ROR1 (full-length, on the cell surface) (human) (UniProt Q01973); assay: flow cytometry, Ba/F3-ROR1 cells (Table 5-3)
[31] = biological target: human ROR1 (full-length, on the cell surface) (human) (UniProt Q01973); assay: flow cytometry, Ba/F3-ROR1 cells (Table 5-1A)
[32] = biological target: T1, human ROR1 (full-length, on the cell …); assay: flow cytometry on Ba/F3-ROR1 cells, MFI against antibody concentration
Source text: as §1

Chain of human ROR1 (full-length, on the cell surface) (human) (Q01973 30-937): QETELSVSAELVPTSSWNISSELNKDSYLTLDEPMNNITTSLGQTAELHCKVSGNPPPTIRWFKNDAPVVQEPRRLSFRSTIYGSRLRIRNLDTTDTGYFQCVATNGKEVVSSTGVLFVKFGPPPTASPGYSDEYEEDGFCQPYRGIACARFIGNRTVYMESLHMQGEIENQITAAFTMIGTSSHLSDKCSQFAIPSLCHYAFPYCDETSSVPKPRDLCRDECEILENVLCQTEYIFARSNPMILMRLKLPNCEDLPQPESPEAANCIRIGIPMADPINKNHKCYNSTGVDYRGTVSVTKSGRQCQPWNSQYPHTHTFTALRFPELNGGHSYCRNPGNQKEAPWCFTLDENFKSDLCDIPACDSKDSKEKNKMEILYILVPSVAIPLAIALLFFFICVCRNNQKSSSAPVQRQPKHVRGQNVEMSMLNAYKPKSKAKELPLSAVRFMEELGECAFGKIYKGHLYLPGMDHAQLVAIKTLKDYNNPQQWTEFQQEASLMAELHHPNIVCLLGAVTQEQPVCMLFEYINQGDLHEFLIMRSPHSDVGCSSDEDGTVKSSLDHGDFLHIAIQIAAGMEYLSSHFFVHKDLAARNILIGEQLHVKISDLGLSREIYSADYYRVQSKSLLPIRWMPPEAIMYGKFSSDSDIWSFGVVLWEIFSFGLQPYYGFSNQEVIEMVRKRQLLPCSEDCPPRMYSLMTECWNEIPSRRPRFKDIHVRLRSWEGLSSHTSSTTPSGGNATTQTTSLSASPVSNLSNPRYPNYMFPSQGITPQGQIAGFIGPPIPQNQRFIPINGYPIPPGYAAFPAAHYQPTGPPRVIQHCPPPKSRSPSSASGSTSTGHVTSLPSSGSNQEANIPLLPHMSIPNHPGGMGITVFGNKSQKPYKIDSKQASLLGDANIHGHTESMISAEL
T1 sequence (Q01973 30-937): as above
Chain of human ROR1 ECD protein (human) (Q01973 30-406): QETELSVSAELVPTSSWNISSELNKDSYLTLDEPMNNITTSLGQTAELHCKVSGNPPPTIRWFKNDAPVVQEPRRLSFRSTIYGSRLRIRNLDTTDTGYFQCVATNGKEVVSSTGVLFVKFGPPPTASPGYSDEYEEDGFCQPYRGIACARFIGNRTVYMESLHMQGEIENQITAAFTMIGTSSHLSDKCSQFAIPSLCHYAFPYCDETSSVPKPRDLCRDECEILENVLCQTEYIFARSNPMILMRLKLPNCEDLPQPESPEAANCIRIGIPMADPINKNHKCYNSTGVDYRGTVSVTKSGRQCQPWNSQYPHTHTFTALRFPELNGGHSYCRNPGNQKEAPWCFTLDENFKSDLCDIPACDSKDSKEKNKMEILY
T2 sequence (Q01974 34-403): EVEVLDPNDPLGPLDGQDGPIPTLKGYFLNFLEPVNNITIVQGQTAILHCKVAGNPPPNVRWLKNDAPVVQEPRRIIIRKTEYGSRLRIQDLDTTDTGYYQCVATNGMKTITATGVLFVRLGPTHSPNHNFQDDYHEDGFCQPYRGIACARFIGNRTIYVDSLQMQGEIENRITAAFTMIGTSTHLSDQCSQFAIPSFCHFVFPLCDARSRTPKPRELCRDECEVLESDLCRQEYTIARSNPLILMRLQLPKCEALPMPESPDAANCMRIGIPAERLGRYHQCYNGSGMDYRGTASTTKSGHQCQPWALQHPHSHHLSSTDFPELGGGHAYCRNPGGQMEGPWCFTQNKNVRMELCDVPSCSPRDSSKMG

B1: Murine antibody 19F6.2.3 (antibody, V domains shown)
VH: DVQLQESGPGLVKPSQSLSLTCTVTGYSITSDYAWNWIRQFPGNKLEWMGYISYSGSIRYNPSLKSRISITRDTSKNQFFLQLNSVTTEDTATYYCARGEITYYFDYWGQGTTLTVSS
VL: DIKMTQSPASLSMAIGEKVTIRCITTTDIDDDMNWYQQKPGEPPKLLISEGNTLRPGVPSRFSSSGYGTDFVFTIENMVSEDVADYYCLQSNDLPLTFGAGTKLELK
notes: Hybridoma antibody
- EC50 (read off the curve) [1]: ~0.02 µg/mL
- activity of inducing internalization on Jeko-1 cells (Mab-ZAP, by IC50), fold over UC961 [2]: 23.4 fold
- binding result [3]: no binding (tested: about 5000 ng/ml)
- EC50 (read off the curve) [4]: ~0.01 µg/mL
- EC50 (read off the curve) [5]: ~0.008 µg/mL

B3: Murine antibody 3D8.2.3 (antibody, V domains shown)
VH: EVKLVESGGGLVKPGGSLKLSCAASGFTFSSYAMSWVRQTPEKRLEWVASINSGGSTYYPDSVKGRFTISRDNARNILYLQMSSLRSEDTAMYYCARVNYYGYGDYAMDYWGQGTSVTVSS
VL: DIKMTQSPSSMYASLGERVTITCKASQDINSYLSWFQQKPGKSPKTLIYRANRLVDGVPSRFSGSGSGQDYSLTISSLEYEDMGIYYCLQYDEFPYTFGGGTNLEIK
notes: Hybridoma antibody
- activity of inducing internalization on Jeko-1 cells (Mab-ZAP, by IC50), fold over UC961 [2]: 3.8 fold
- binding result [3]: no binding (tested: about 5000 ng/ml)
- EC50 (read off the curve) [4]: ~0.03 µg/mL
- EC50 (read off the curve) [5]: ~0.02 µg/mL
- EC50 (read off the curve) [32]: ~0.06 µg/mL

Further lines, with some results ahead:

- EC50 [6]: 0.37 nM
- EC50 [8]: 0.41 nM
- EC50 [9]: 0.14 nM
- EC50 [10]: 0.06 nM
- EC50 (read off the curve) [11]: 0.05 µg/mL
- EC50 [12]: 0.46 nM
- EC50 [13]: 0.267 nM
- EC50 (read off the curve) [14]: 0.07 µg/mL
- EC50 [15]: 0.36 nM
- EC50 [16]: 0.2 nM
- EC50 [17]: 0.22 nM
- EC50 [18]: 0.447 nM
- Kd [19]: 15.8 nM
- koff [19]: 0.0137 s⁻¹
- kon [19]: 981000 M⁻¹ s⁻¹
- EC50 [20]: 0.16 nM
- Kd [21]: 8.73 nM
- koff [21]: 0.0112 s⁻¹
- kon [21]: 1.26e+06 M⁻¹ s⁻¹
- EC50 [22]: 0.31 nM
- EC50 (read off the curve) [23]: 0.01 µg/mL
- EC50 [24]: 0.21 nM
- EC50 [25]: 0.21 nM
- EC50 [26]: 0.12 nM
- EC50 [27]: 0.3 nM
- EC50 [28]: 0.44 nM
- EC50 [29]: 0.277 nM
- EC50 [30]: 1.07 nM
- EC50 [31]: 0.62 nM
B2: anti-human ROR1 antibody UC961 (antibody, from another filing, V domains shown)
VH: QVQLQESGPGLVKPSQTLSLTCTVSGYAFTAYNIHWVRQAPGQGLEWMGSFDPYDGGSSYNQKFKDRLTISKDTSKNQVVLTMTNMDPVDTATYYCARGWYYFDYWGHGTLVTVSS
VL: DIVMTQTPLSLPVTPGEPASISCRASKSISKYLAWYQQKPGQAPRLLIYSGSTLQSGIPPRFSGSGYGTDFTLTINNIESEDAAYYFCQQHDESPYTFGEGTKVEIK
- EC50 of ADCC killing of Ba/F3-ROR1 cells by NK92MI-mCD16a-hFceRI cells [7]: 0.33 nM

- EC50 (read off the curve) [1]: ~0.04 µg/mL
- activity of inducing internalization on Jeko-1 cells (Mab-ZAP, by IC50), fold over UC961 [2]: 5.3 fold
- binding result [3]: no binding (tested: about 5000 ng/ml)
- EC50 (read off the curve) [5]: ~0.03 µg/mL
- EC50 (read off the curve) [32]: ~0.06 µg/mL
B4: Murine antibody 38F8.1.1 (antibody, V domains shown)
VH: EVKLVESGGDLVKPGGSLKLSCTASGFTFSNYAMSWVRQTPEKRLEWVASISSGGPTYYPDSVKGRFTVSRDNARNILYLQMSSLRSEDTAMYYCARGYRYDVNWYFDVWGAGTSVTVSS
VL: DIKMTQSPSSMYASLGERVTITCKASQDINSYLTWFQQKPGKSPKTLIHRANRLVDGVPSRFSGSGSGQDYSLTISSLEYEDMGIYYCLQYDEFPYTFGGGTKLEIK
notes: Hybridoma antibody
